US20230212319A1, “NOVEL ANTIGEN BINDING DOMAINS AND SYNTHETIC ANTIGEN RECEPTORS INCORPORATING THE SAME” (University of Southern California, priority 2020, published 2023)

B1: 22131 (protein)
chain: MALPVTALLLPLALLLHAARPACEVQLLESGGGLIQPGGSLRLSCAASGFTFSSHAMTWVRQAPGKGLEWVSAISGSGDYTHYADSVKGRFTISRDNSKNTVYLQMNSLRAEDSAVYYCAKDEDGGSLLGHRGQGTLVTVSSGTGGGGSGGGGSGGGGSEFDIQMTQSPSSLSASVGDRVTITCKASDHINNWLAWYQQKPGQAPKLLIYGATTLETGVPSRFSGSGSGTDYTLTISSLQPEDFATYYCQQSWNTPWTFGQGTKLEIKRLEDLKNVFPPEVAVFEPSKAEIAHTQKATLVCLATGFYPDHVELSWWVNGKEVHSGVCTDPQPLKEQPALNDSRYCLSSRLRVSATFWQNPRNHFRCQVQFYGLSENDEWTQDRAKPVTQIVSAEAWGRADCGITSASYHQGVLSATILYEILLGKATLYAVLVSALVLMAMVKRKDSRGRAKRSGSGATNFSLLKQAGDVEENPGPTSATMDWIWRILFLVGAATGAHSGPQVQLQESGGGLAQAGGSLRLSCAASGRTFSMGWFRQAPGKEREFVAAITYSGGSPYYASSVRGRFTISRDNAKNTVYLQMNSLKPEDTAVYYCAANPTYGSDWNAENWGQGTQVTVSSGSGGGGSGGGGSGGGGSFEQVQLQQPGAELVKPGASVKMSCKASGYAFSSYWINWMKQKPGQGLEWIGQIYPGDGDTNYNGKFKGRATLTADTSSSTAYMQLSSLTSEDSAVYFCARSITTVVGCAMDYWGQGTSVTVSSTRIQNPDPAVYQLRDSKSSDKSVCLFTDFDSQTNVSQSKDSDVYITDKCVLDMRSMDFKSNSAVAWSNKSDFACANAFNNSIIPEDTFFPSSDVPCDVKLVEKSFETDTNLNFQNLSVIGFRILLLKVAGFNLLMTLRLWSSRAKRSGSGVKQTLNFDLLKLAGDVESNPGPSRGHMTEYKPTVRLATRDDVPRAVRTLAAAFADYPATRHTVDPDRHIERVTELQELFLTRVGLDIGKVWVADDGAAVAVWTTPESVEAGAVFAEIGPRMAELSGSRLAAQQQMEGLLAPHRPKEPAWFLATVGVSPDHQGKGLGSAVVLPGVEAAERAGVPAFLETSAPRNLPFYERLGFTVTADVEVPEGPRTWCMTRKPGA
B2: CD8SP-BCMA-FHVH-93-G4S-TCR-Vg9-F-P2A-IgHSP-CD20-vHH2-HCD25-G4S-TCR-Vd2-F-F2A-PAC (protein)
chain: MALPVTALLLPLALLLHAARPACEVQLLESGGGLIQPGGSLRLSCAASGFTFSSHAMTWVRQAPGKGLEWVSAISGSGDYTHYADSVKGRFTISRDNSKNTVYLQMNSLRAEDSAVYYCAKDEDGGSLLGHRGQGTLVTVSSGTGGGGSGGGGSGGGGSEFAGHLEQPQISSTKTLSKTARLECVVSGITISATSVYWYRERPGEVIQFLVSISYDGTVRKESGIPSGKFEVDRIPETSTSTLTIHNVEKQDIATYYCALWEAQQELGKKIKVFGPGTKLIITDKQLDKQLDADVSPKPTIFLPSIAETKLQKAGTYLCLLEKFFPDVIKIHWQEKKSNTILGSQEGNTMKTNDTYMKFSWLTVPEKSLDKEHRCIVRHENNKNGVDQEIIFPPIKTDVITMDPKDNCSKDANDTLLLQLTNTSAYYMYLLLLLKSVVYFAIITCCLLRRTAFCCNGEKSRAKRSGSGATNFSLLKQAGDVEENPGPTSATMDWIWRILFLVGAATGAHSGPQVQLQESGGGLAQAGGSLRLSCAASGRTFSMGWFRQAPGKEREFVAAITYSGGSPYYASSVRGRFTISRDNAKNTVYLQMNSLKPEDTAVYYCAANPTYGSDWNAENWGQGTQVTVSSGSGGGGSGGGGSGGGGSFEAIELVPEHQTVPVSIGVPATLRCSMKGEAIGNYYINWYRKTQGNTMTFIYREKDIYGPGFKDNFQGDIDIAKNLAVLKILAPSERDEGSYYCACDTLGMGGEYTDKLIFGKGTRVTVEPRSQPHTKPSVFVMKNGTNVACLVKEFYPKDIRINLVSSKKITEFDPAIVISPSGKYNAVKLGKYEDSNSVTCSVQHDNKTVHSTDFEVKTDSTDHVKPKETENTKQPSKSCHKPKAIVHTEKVNMMSLTVLGLRMLFAKTVAVNFLLTAKLFFLRAKRSGSGVKQTLNFDLLKLAGDVESNPGPSRAHMTEYKPTVRLATRDDVPRAVRTLAAAFADYPATRHTVDPDRHIERVTELQELFLTRVGLDIGKVWVADDGAAVAVWTTPESVEAGAVFAEIGPRMAELSGSRLAAQQQMEGLLAPHRPKEPAWFLATVGVSPDHQGKGLGSAVVLPGVEAAERAGVPAFLETSAPRNLPFYERLGFTVTADVEVPEGPRTWCMTRKPGA
B3: 22201 (protein)
chain: B2 chain

Assays:
Assay type in all cases: cell-based
[1] = tested on: RAJI-CD19-KO cells; assay: JNG assay, co-culture with RAJI-CD19-KO cells; conditions: for NFAT-GFP ASSAY: Raji-CD19-KO: co-culture with Raji-CD19-KO
Description: Cellular supernatant is collected and assayed for the induction of cytokines (e.g., IL2).
JNG (Jurkat cells expressing EGFP under an NFAT promoter) were infected with lentiviral vectors encoding different single chain and multi-chain SARs by spinfection in the presence of 8 µg/ml of Polybrene® (Sigma, Catalog no. H9268). The Jurkat-NFAT-GFP cells are engineered in such a way that the IL-2 promoter, which carries NFAT binding sites, is cloned upstream of the GFP gene. These cells have been used to study signaling via TCR and CAR. The different SARs were stably expressed in Jurkat NFAT-GFP cells by lentiviral mediated gene transfer, followed by selection with puromycin or blasticidin. No drug selection was used in case the construct lacked an antibiotic resistance gene. The SAR-expressing Jurkat-NFAT-GFP cells were cocultured with the target cells at E:T ratio of approximately 1:2 for approximately 4 hours to 18 hours. When the interaction between SIRs and their target antigen results in activation of the NFAT pathway, GFP expression is induced. […] GFP expression was monitored by FACS analysis. The Jurkat-NFAT-GFP (parental) cells were used as control. The structure of different constructs can be determined based on their names. […] The sequence of the other constructs in the table can be similarly determined from their names and by referring to the different Tables of this disclosure that provide the names and SEQ ID NO of the different modules. Alternatively, the composition and modular architecture of the different SAR constructs can be determined from their sequences by bioinformatics tools, including using nucleic acid and amino acids homology searches. A SAR is considered positive in the assay in case the SAR expressing Jurkat-NFAT-GFP cells show greater % GFP positive cells when cultured with the target cell line as compared to parental Jurkat-NFAT-GFP cells. […] In general, the number +/-, +, 2+, 3+, 4+, 5+ refer to approximately 5%, 10%, 20%, 30%, 40% and 50% GFP positive cells. The % of GFP induction in the above assay is dependent not only the relative strength of the SAR but also, among other factors, on the relative level of expression of the SAR in the JNG cells and the relative level of expression of the target antigen in the target cell line. To control for the difference in gene transduction efficiency of the different SAR constructs, the experiment was conducted with JNG cells transduced with SAR constructs co-expressing a drug resistance gene (e.g., puromycin or PAC) followed by drug selection to generate a stable population of SAR-expressing cells. It is to be noted that the drug resistance gene (e.g., PAC) in the SAR constructs is optional and in vivo studies were conducted with SAR constructs lacking the PAC gene.

[2] = tested on: L363 cells; assay: JNG assay, co-culture with L363 cells
In short: (§1)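 Jurkat-NFAT-GFP (JNG) cells stably expressing SAR constructs via lentiviral transduction and puromycin/blasticidin selection were cocultured with target cells at E:T ~1:2 for ~4–18 h. NFAT-driven GFP was measured by FACS versus parental JNG cells; scores +/- to 5+ denote ~5–50% GFP-positive cells.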

[3] = tested on: RAJI cells; assay: JNG assay, co-culture with RAJI cells
In short: as §1

[4] = tested on: Nalm6 cells; assay: JNG assay, co-culture with Nalm6 cells; conditions: co-culture with Nalm6
In short: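 Drug-selected populations of SAR-expressing Jurkat-NFAT-GFP cells meet target cells (about 1:2 E:T) for roughly 4–18 h. Flow cytometry gives % GFP+ cells, graded +/- to 5+ (≈5% to ≈50%) relative to the parental control.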

| Molecule | NFAT-GFP ASSAY: Raji-CD19-KO [1] | NFAT-GFP ASSAY: L363 ([2]; co-culture with L363) | NFAT-GFP ASSAY: Raji ([3]; JNG cells expressing construct, co-culture with Raji) | GFP induction / activity ([1]; co-culture with RAJI-CD19-KO cells) | GFP induction / activity ([2]; co-culture with L363 cells) | GFP induction / activity ([3]; co-culture with RAJI cells) | NFAT-GFP ASSAY: Nalm6 [4] |
| --- | --- | --- | --- | --- | --- | --- | --- |
| B1 | 5+ (refer to approximately 5%, 10%, 20%, 30%, 40% and 50% GFP positive cells) | 5+ (refer to approximately 5%, 10%, 20%, 30%, 40% and 50% GFP positive cells) | 4+ (refer to approximately 5%, 10%, 20%, 30%, 40% and 50% GFP positive cells) |  |  |  |  |
| B2 |  |  |  | robust induction of GFP | robust induction of GFP | robust induction of GFP |  |
| B3 | 2+ (refer to approximately 5%, 10%, 20%, 30%, 40% and 50% GFP positive cells) |  |  |  |  |  | +/- (refer to approximately 5%, 10%, 20%, 30%, 40% and 50% GFP positive cells) |
